# The supplement of paper PMC12042874
# ± gives the uncertainty stated by the source.
# Assay: amyloid nucleation score (Sup35N fusion, yeast selection) (log enrichment); library NNK2; higher = more nucleation; inactive = no reads after selection
# In short: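 Psi-negative yeast expressed Sup35N fused to peptides of 20 random codons. They were induced 24 hours with 100 μM copper sulfate, grown 7 days at 30°C without adenine and uracil, and their plasmid inserts from input and output were Illumina-sequenced. The nucleation score is the DiMSum log enrichment of output over input reads, centred on the mode score of non-aggregating sequences. Sequences with under 100 input reads were excluded.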
row,Substance,amyloid nucleation score
1,RMDKAGRSGV,0.656 ± 0.26
2,RMFWISNKVSIPGPGLEAGN,inactive
3,RMGSYDVNRNSFFKCSGRVS,-0.864 ± 0.78
4,RMNEACTWTLIVYFYRSLL,1.5 ± 0.12
5,RMQHKHASVKGPTCVIQCTD,1.62 ± 0.34
6,RMSEYFDGLHRWFSGCWCAL,0.256 ± 0.65
7,RMSIFPGH,-1.04 ± 1.1
8,RMSWVGSEHRLGVNSFNVLG,0.201 ± 0.34
9,RNCACCEWL,4.58 ± 0.052
10,RNCHYYILVTLCNVKNVYL,8.283 ± 0.054
11,RNCRDNYYSWRFKHLNRDRD,-0.076 ± 0.61
12,RNFCGTRARSISYWAESERW,-0.089 ± 1.1
13,RNFPMVFCAMV,inactive
14,RNGCLTIEW,1.78 ± 0.12
15,RNKCYLLCLR,-0.384 ± 0.26
16,RNKIMCNPYCQGRICRILSG,-0.777 ± 0.53
17,RNRSKQDQWRNELSAGLHGV,-0.359 ± 0.45
18,RNVCGCPGCYFNVDAILLWY,-1.2 ± 1.1
19,RPCFCFSMFYGRKW,0.553 ± 0.8
20,RPDQTRF,-0.022 ± 0.5
21,RPFKYCVRRLANRA,0.135 ± 0.65
22,RPKYIWDCWCTCFHFS,3.63 ± 0.088
23,RPPPHCSCSSYSWDMYCILN,8.58 ± 0.072
24,RQQIFYSRDVQVNVGGN,inactive
25,RQQMDS,3.62 ± 0.073

row,Substance,amyloid nucleation score
1,RQSKARLYCR,0.397 ± 0.3
2,RQVWLR,0.854 ± 0.32
3,RRFKSDLL,1.57 ± 0.44
4,RRGDKRMVTDFTLLTTGGGR,0.543 ± 0.33
5,RRGSSTIGADKESQVSLQN,-0.724 ± 1
6,RRHEPVPSSK,0.398 ± 0.66
7,RRKSGLEFLLISNYIILGFR,inactive
8,RRVPEKGLLGLYSGGLIAEV,-0.299 ± 0.74
9,RRVVVTWMSNIPRLLSRGVN,0.171 ± 0.23
10,RRYDAVR,1.3 ± 0.22
11,RSGVESHRRKVPLVPMGVTV,1.16 ± 0.36
12,RSKQRCGTTDSPLAMVSKRV,1.05 ± 0.31
13,RSKVYTWR,3.23 ± 0.071
14,RSLIKSRVIWGRKCSSRFIR,-0.64 ± 0.32
15,RSNRYGRDWNGVGTKWLFHD,-0.395 ± 0.45
16,RSQSSYRIVQWIMYTCDNVL,inactive
17,RSSASRNQFKESCFRAHQFP,-0.339 ± 0.27
18,RSSCRRNSYLRQLVMSLVRY,-0.105 ± 1.1
19,RSSRYLLPFNGGTPFYDSR,-0.284 ± 1.1
20,RSSVWGMRELIERKNTSGAW,1.49 ± 0.19
21,RSTDLVSIFRMDLAIRINVL,0.815 ± 0.13
22,RSVFDLMPRLYDYATNHLSY,-0.057 ± 0.34
23,RSYDQVRSCHARMREDSNVQ,4.61 ± 0.066
24,RSYSGVFT,-0.926 ± 0.48
25,RTHWELRKNLLCPFVDKIY,-1.2 ± 0.78

row,Substance,amyloid nucleation score
1,RTIANDWHSCFSGRNLHSSW,0.808 ± 0.74
2,RTIVFTLWRDGITKFMVNRD,0.452 ± 0.43
3,RTLNGADFS,0.486 ± 0.8
4,RTMLSGLLGYRSRSLADSPF,-0.199 ± 0.76
5,RTPSCSL,-0.916 ± 1
6,RTVEWRDNYLLGRILLFNPV,-0.187 ± 0.55
7,RVDKGVEFSSTSGSVRNFSL,-0.83 ± 1.1
8,RVEGFRFYFEVRLGSVSRKL,-0.42 ± 0.76
9,RVERLWVLHSKATQRRM,0.063 ± 0.79
10,RVIDLVTCKAHSGWSVLGYM,-0.402 ± 0.37
11,RVLFHSSFGRGLVCEISVHV,-1.01 ± 0.62
12,RVLSIRSFP,1.64 ± 0.13
13,RVQAGFIRAGCNIEARKFSG,-0.48 ± 0.28
14,RVRGGEYRRSYTKWWEGCGS,3.19 ± 0.091
15,RVRIVPDCFNVAACGGWYMD,-0.062 ± 0.45
16,RVRLTRSSSCPNSVSFCGVA,1.29 ± 0.24
17,RVSGNCIYTKWCVFPVGNLL,-1.12 ± 0.76
18,RVSQDSVAGRRSLFMKFVGG,6.022 ± 0.042
19,RVSVDTWQAYMAICWSYVGL,0.915 ± 0.23
20,RVTKSVKLGPEFMLNHGRLT,3.33 ± 0.061
21,RVVVTEKKLPCLGQGTIVPT,0.03 ± 0.35
22,RVYSLNSRWYSLPG,0.016 ± 0.76
23,RWFDRV,0.664 ± 0.31
24,RWFFEQDIIYLSRVRGDFRV,inactive
25,RWIYLGYSLCLDVLLYCIEL,4.07 ± 0.06

row,Substance,amyloid nucleation score
1,RWMLIAE,1.03 ± 0.31
2,RWNGSKLRY,0.009 ± 0.76
3,RWVWDGPLYMLFSCMCYIKR,6.484 ± 0.064
4,RWYILILGFRGKIIYPFRLG,0.157 ± 1
5,RWYSPWSWY,0.662 ± 0.36
6,RYFDWYNI,-1.28 ± 0.45
7,RYGGRMAMRINYISIMSADY,0.138 ± 0.47
8,RYGLLYSTSLACWFGS,4.36 ± 0.058
9,RYHVRMKISCRF,2.74 ± 0.11
10,RYISYITSVSESRQGNRPYG,-0.446 ± 0.28
11,RYLCSRVVMSYTCARTPETG,0.43 ± 0.35
12,RYLVLVLLGHINCARYYTLN,-0.114 ± 1.1
13,RYPVESCVHSFLESRVRDQG,0.881 ± 0.45
14,RYRFVIMDDLIIMNAFNSIE,4.48 ± 0.12
15,RYTYRHNVFTNMSLVYNTMP,2.88 ± 0.11
16,RYYKCVLVWRHQGDSHIRAT,-0.412 ± 0.63
17,SAATPCVY,0.778 ± 0.25
18,SACWEGGSSFVIKGKTRLFG,1.94 ± 0.19
19,SAFVSVCVSDRDRMGCYYSS,inactive
20,SAFVVQFVK,-0.31 ± 0.42
21,SALHLYGFFLRFFERSSVIL,-0.608 ± 0.76
22,SALPDSTNRIASVGGISPGS,0.489 ± 0.46
23,SAQNDEKFLDPVSVIPRCKS,0.443 ± 0.56
24,SAYLPSHLYTAFEPHGLVST,0.933 ± 0.2
25,SCCISPVSVIMRPSY,3.79 ± 0.1

row,Substance,amyloid nucleation score
1,SCCLLPKYELRIIYCASRRK,-0.324 ± 1.1
2,SCDWRAGPSSATRTR,1.24 ± 0.35
3,SCFIFSCYDTSLQMLVFAVG,-0.591 ± 0.63
4,SCGMFESPAVYGYSARLSRL,inactive
5,SCHSFRFKPNGFVL,-0.575 ± 0.49
6,SCKNMGHVWFIVDVHHNRRL,inactive
7,SCLSSFELVL,-0.694 ± 1.1
8,SCMYIFLFLNSNIQLIVWDV,-0.137 ± 1.1
9,SCNDANILSMSVVWVLRTGE,3.12 ± 0.13
10,SCQENICENWFWLLHD,-0.321 ± 0.45
11,SCVSTYDFNSIR,-0.484 ± 0.25
12,SCVYLDCLF,0.25 ± 0.6
13,SCWYKRWTPCSRDYDSFYIA,2.72 ± 0.09
14,SDAVFFLLSNGNRPPRAAMS,0.155 ± 0.29
15,SDDWIDYRCNPGRGSKEAMA,4.6 ± 0.098
16,SDGNELDWIAGLTMYRGVER,0.319 ± 0.8
17,SDLRRCM,0.277 ± 0.21
18,SDSDLPGFRREGNRIRVWLG,0.312 ± 0.49
19,SDSNSCGEFARISYMGKWCE,0.705 ± 0.8
20,SDVELWRYG,2.55 ± 0.065
21,SDYYVFTDVFVGGYNLDE,-1.04 ± 1
22,SEAEVSFWAFPEEYIEHKYM,inactive
23,SECKSRRYIWWHIWYDLS,0.49 ± 0.12
24,SEFSNFKSLQPVYH,-0.047 ± 1.1
25,SEILWKTWNRFKPCFSRQYG,-0.675 ± 0.78

row,Substance,amyloid nucleation score
1,SELHGCYFHVHRRHRYRGYY,-0.015 ± 0.61
2,SELIGFLGGNQIELA,0.027 ± 0.34
3,SELWYVPLANVE,0.242 ± 0.5
4,SENGRLLLGLFGKRWDVNDV,-0.097 ± 0.79
5,SETNMVHPYAIYLKVRYANN,0.566 ± 0.24
6,SEVILYGMHSNINLPI,0.063 ± 1.1
7,SFALGLQRNVNCKDD,-0.06 ± 0.54
8,SFANVSVMSIYRAVNPSWRP,5.56 ± 0.072
9,SFCGLTVILGRSSSAWGLPT,6.959 ± 0.053
10,SFCSTGTEDTT,-0.213 ± 0.26
11,SFDLWLCTRRWLGGAWILL,-0.029 ± 0.65
12,SFINGILRFLSRRCNCIWLL,0.14 ± 0.5
13,SFKGDDVVYC,-0.052 ± 0.27
14,SFLSKSWY,1.18 ± 0.17
15,SFNGVILRNDVITRVLFDRQ,6.7 ± 0.051
16,SFNYP,inactive
17,SFSANADYGWNDRTNFFSVF,inactive
18,SFSCFVCCDQHKSRGSVWHY,8.683 ± 0.076
19,SFSESIPIIGGLRKAVSHTS,0.413 ± 0.24
20,SFVIIVLDDLCSCAN,1.62 ± 0.13
21,SFVVRTQMSGCANSFDEKFN,-0.479 ± 1
22,SFYSDYNQLIISMGHWSSMN,4.35 ± 0.11
23,SGAVHFQRRASCEGQDMLCW,-0.028 ± 0.26
24,SGAYSDGWYRQHFMVQL,inactive
25,SGCLQRFSQSLGRTCFIWLG,-1.29 ± 0.75

row,Substance,amyloid nucleation score
1,SGGRYTEATWECG,0.316 ± 0.65
2,SGGSDMQHS,1.61 ± 0.3
3,SGILREPVMIQVSVLQEQHW,5.025 ± 0.045
4,SGINNIWYEDLTLPKWSKG,-0.401 ± 0.55
5,SGIVG,0.791 ± 0.57
6,SGLSAVGSLGVNIEISSFVR,-0.983 ± 0.78
7,SGNKAMWKIIPLT,-0.262 ± 0.27
8,SGPLVWLLLWQFNDGLCGWG,-0.656 ± 0.49
9,SGSAESFLT,0.195 ± 0.53
10,SGSIKHMNLVMV,-0.027 ± 0.2
11,SGTSLRVTSNRRFDMYGVYG,-0.766 ± 0.5
12,SGVFAFTKLLNTIEGDFCHR,-0.721 ± 0.64
13,SGVPYVNNMEASELSWGKIP,inactive
14,SGWDCSRVIQVLQVKNIYDS,3.36 ± 0.06
15,SGYVRCLSAYDFLVNGLPML,0.519 ± 0.31
16,SHEIVCTSVRSLTIFKQVQR,3.24 ± 0.059
17,SHFSYKECRSAVRMLQYNGA,0.719 ± 0.52
18,SHHLRKSFCPC,-0.279 ± 0.5
19,SHPDRTIDSGFDTMRDAIWT,0.22 ± 0.63
20,SHSGIFSDAAHDVLGGGEEK,0.503 ± 0.8
21,SHTVTDGWCVV,1.52 ± 0.21
